Sequences and labels used below:
T1: macaca IL6R-his protein (macaca mulatta)
T1 chain: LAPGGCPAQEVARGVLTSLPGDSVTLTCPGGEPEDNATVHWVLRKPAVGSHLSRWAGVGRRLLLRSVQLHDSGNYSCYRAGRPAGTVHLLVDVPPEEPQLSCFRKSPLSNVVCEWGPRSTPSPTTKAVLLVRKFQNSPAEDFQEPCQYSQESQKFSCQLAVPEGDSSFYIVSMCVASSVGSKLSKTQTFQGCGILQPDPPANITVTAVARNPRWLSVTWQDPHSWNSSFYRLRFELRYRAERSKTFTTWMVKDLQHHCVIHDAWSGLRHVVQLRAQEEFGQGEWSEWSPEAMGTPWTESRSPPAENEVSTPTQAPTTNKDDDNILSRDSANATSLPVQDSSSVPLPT

B1: mouse anti-IL6R monoclonal antibody 1D4 (antibody, V domains shown)
VH: QVQLQQPGAELVKPGASVKLSCKASGYTFTSYWMHWVKVRPGQGLEWIGEINPTNGRTNYNEDFKSKATLTVNSSSSTAYMQLSSLTSEDSAVYYCARLNTHYVFDYWGQGTTLTVSS
VL: EIVLTQSPTILAASPGEKITFTCSVSSSISSNYLHWYQQKPGFSPKLLIYRTSNLASGVPARFSGSGSGTSYSLTIGTMEAEDVATYYCQQGSGIPFTFGSGTKLEIK
notes: Mouse hybridoma mAb
B2: mouse anti-IL6R monoclonal antibody 1A3 (antibody, V domains shown)
VH: QVQLQQPGAELVKPGASVKLSCKASGYTFTSYWMHWVKQRPAQGLEWIGEINPSNGRTNFNEKFKTKATLTVDKSSNTAYMQLSSLTSEDSAVYSCLRLNTHYVFDYWGQGTTLTVSS
VL: B1 VL with I10T, L11M, F21I, V25A, Y50S, A61T, E82G
notes: Mouse hybridoma mAb purified on Protein A
B3: Tocilizumab (antibody, human IgG1, kappa, V domains shown)
VH: QVQLQESGPGLVRPSQTLSLTCTVSGYSITSDHAWSWVRQPPGRGLEWIGYISYSGITTYNPSLKSRVTMLRDTSKNQFSLRLSSVTAADTAVYYCARSLARTTAMDYWGQGSLVTVSS
VL: DIQMTQSPSSLSASVGDRVTITCRASQDISSYLNWYQQKPGKAPKLLIYYTSRLHSGVPSRFSGSGSGTDFTFTISSLQPEDIATYYCQQGNTLPYTFGQGTKVEIKR
notes: In house made; also called benchmark; Actemra
B4: mouse anti-IL6R monoclonal antibody 1H7 (antibody, V domains shown)
VH: B1 VH with A9T, S31N, V39Q, E46D, D63N, N73D, S74K, Y107S, V116L
VL: B1 VL with I10T, Y50S, N54T, I107L
notes: Mouse hybridoma mAb
B5: mouse anti-IL6R monoclonal antibody 1B5 (antibody, V domains shown)
VH: B1 VH with V39Q, T54S, D63N, N73D, S74K
VL: B1 VL
notes: Mouse hybridoma mAb
B6: Chimeric 1H7 (antibody, human IgG1, kappa, V domains shown)
VH: B1 VH with A9T, S31N, V39Q, E46D, D63N, N73D, S74K, Y107S, V116L
VL: EIVLTQSPTTLAASPGEKITFTCSVSSSISSNYLHWYQQKPGFSPKLLISRTSTLASGVPARFSGSGSGTSYSLTIGTMEAEDVATYYCQQGSGIPFTFGSGTKLELKR
notes: Mouse variable regions on human IgG1 / human kappa constant regions; also called chimeric antibody 1H7
B7: humanized antibody hu1H7-V5 (antibody, human IgG1, kappa, V domains shown)
VH: QVQLVQSGAEVKKPGASVKVSCKASGYTFTNYWMHWVRQAPGQGLEWIGEINPTNGRTNYNENFKSRVTLTVDTSTSTVYMELSSLRSEDTAVYYCARLNTHYVFDSWGQGTLVTVSS
VL: EIVLTQSPGTLSLSPGERATLSCSVSSSISSNYLHWYQQKPGLSPRLLISRTSTLASGIPARFSGSGSGTEYTLTISRMQSEDFAVYYCQQGSGIPFTFGQGTKLEIKR
notes: Human IgG1 / kappa
B8: mouse anti-IL6R monoclonal antibody 1G1 (antibody, V domains shown)
VH: B1 VH with N73E, L83F
VL: B1 VL
notes: Mouse hybridoma mAb
B9: mouse anti-IL6R monoclonal antibody 1H9 (antibody, V domains shown)
VH: QVQLQQPGAELVKPGASVKLSCKASGYTFTSYWMHWVKLRPGQGLEWIGEINPTNGRTNYYEKFKNRATLTADKSSSTAYMQLSSLTFEDSAVYFCAKFHYSRWYFDVWGTGTTVTVSS
VL: DIVMTQSQKFMSTSVGDRVSITCKASQNVGTAVVWYQQKPGQSPKLLINPASNRYTGVPDRFTGSGSGTDFTLTISNMQSEDLADYFCQQYSSYPLTFGAGTKLELK
notes: Mouse hybridoma mAb
B10: mouse anti-IL6R monoclonal antibody 3C2 (antibody, V domains shown)
VH: QVQLQQPGTELVKPGASVKLSCKASGYTFTTYWIHWVKQRPGQGLEWIGEINPSNGRTNYNEHFKSKATLTVDKSSSTASMQLSSLTSADSAVYYCARLNTHYVFDSWGQGTTLTVSS
VL: B1 VL with I10T, L11M, F21I, V25A, A61T, R62H
notes: Mouse hybridoma mAb
B11: mouse anti-IL6R monoclonal antibody 1F7 (antibody, V domains shown)
VH: QVQLQQPGAELVKPGASVKLSCKASDYTFTSYWMHWVKQRPGQGLEWIGEINPSNGRTNYNEKFKNKATLTVDKSSSTAYVQLYSLTSEDSAVYYCARLSIHYVFDYWGQGTTLTVSS
VL: B1 VL with I2L, I10T, L11M, V25A, Y50S, R51G, A61P, G77V
notes: Mouse hybridoma mAb

Positions count from the first letter of the chain named.

For one assay, the target named is T1, macaca IL6R-his protein. Nature of the assay: indirect ELISA on plate-coated macaca IL6R-his. The protocol:
(§1) The anti-IL6R antibodies were tested for their cross-reaction with macaca IL6R. Briefly, 96-well micro plates were coated with 2 μg/ml macaca IL6R-his protein (in house made, amino acid sequence set forth in SEQ ID NO:45) in carbonate/bicarbonate buffer (pH 9.6), 100 μl/well, for 2 hours at 37° C. ELISA plates were washed once with wash buffer (PBS+0.05% v/v Tween-20, PBST) and then blocked with 200 μl/well blocking buffer (5% w/v non-fatty milk in PBST) for 2 hours at 37° C. Plates were washed 4 times and incubated with 100 μl/well serially diluted anti-IL6R antibodies of the disclosure or controls, starting at 66.67 nM with 5-fold serial dilution in PBST with 2.5% w/v non-fat milk, and incubated at 37° C. for 40 minutes. ELISA plates were washed 4 times again and incubated with 100 μl/well Peroxidase AffiniPure Goat Anti-Mouse IgG, Fcγ Fragment Specific (1:5000 dilution in PBST buffer, Jackson ImmunoResearch Laboratories, Inc., Cat #115-035-071) for 40 minutes at 37° C. After the final wash, plates were incubated with 100 μl/well TMB (InnoReagents). The reaction was stopped 3-10 minutes later at room temperature with 50 μl/well 1M H₂SO₄, and the absorbance of each well was read on a microplate reader using dual wavelength mode with 450 nm for TMB and 630 nm as the reference wavelength. Then the OD (450-630) values were plotted against antibody concentration. Data was analyzed using Graphpad Prism software and EC₅₀ values were reported.
(In general: ELISA stands for enzyme-linked immunosorbent assay.)
Usually EC50 stands for the concentration needed to bring the measured effect to its halfway point. A higher EC50 goes with lower potency in that assay. With B1, the EC50 is 0.175 nM.

B2 came in with an EC50 of 0.228 nM.

In turn, B3 came in with an EC50 of 0.0589 nM.

The target of a further assay is T2, human IL6R-Fc protein (human, biotin-labeled in the ELISAs (sites not given)).
T2 construct: In house made; also called biotin-labeled human IL6R-Fc protein
Description: ligand blocking ELISA: antibody pre-incubated with biotin-labeled human IL6R-Fc, added to plate-coated human IL6 (blocked ligand: human IL6).
Target sequence in this assay (chain, as listed by the source limits assumed): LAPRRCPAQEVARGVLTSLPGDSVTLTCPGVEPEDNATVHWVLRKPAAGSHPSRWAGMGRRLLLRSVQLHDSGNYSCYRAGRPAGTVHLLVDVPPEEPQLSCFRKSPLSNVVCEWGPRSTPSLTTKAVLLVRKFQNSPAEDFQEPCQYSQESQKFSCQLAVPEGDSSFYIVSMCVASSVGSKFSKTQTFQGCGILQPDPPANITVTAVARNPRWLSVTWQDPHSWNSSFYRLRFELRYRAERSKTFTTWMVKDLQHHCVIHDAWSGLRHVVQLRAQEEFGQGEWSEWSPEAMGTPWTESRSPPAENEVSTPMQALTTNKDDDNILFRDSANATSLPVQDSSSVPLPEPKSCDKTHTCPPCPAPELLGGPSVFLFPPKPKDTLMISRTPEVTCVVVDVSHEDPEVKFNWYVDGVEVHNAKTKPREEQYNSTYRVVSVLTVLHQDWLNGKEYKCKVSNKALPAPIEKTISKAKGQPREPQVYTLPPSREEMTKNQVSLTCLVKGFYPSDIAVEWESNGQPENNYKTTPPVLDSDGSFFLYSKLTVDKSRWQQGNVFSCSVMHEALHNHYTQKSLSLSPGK
As a reminder, the IC50 is the concentration needed to halve the response being measured. A high value points to a need for much substance. As for B4, the IC50 worked out at 0.231 nM.

As to B5, the IC50 is 0.281 nM.

Molecule B6 registered an IC50 of 0.261 nM.

The molecule B3 registered a half-inhibitory concentration (IC50) of 0.773 nM.

For a further assay, the target named is T2, human IL6R-Fc protein. The assay is described as above. This is another data set of the same source. The protocol: (§2) ELISA plates were washed once with wash buffer (PBS+0.05% v/v Tween-20, PBST) and then blocked with 200 μl/well blocking buffer (5% w/v non-fatty milk in PBST) overnight at 4° C.
(§3) The next day, anti-IL6R antibodies or controls were diluted with biotin labeled human IL6R-Fc protein (prepared in house, SEQ ID NO: 43, 39.5 ng/ml in 2.5% w/v non-fatty milk in PBST), starting at 100 nM with a 4-fold serial dilution, and incubated at room temperature for 40 minutes. […] Plates were washed for 4 times using wash buffer, and added and incubated with 100 μl/well of streptavidin conjugated HRP (1:10000 dilution in PBST buffer, Jackson ImmunoResearch Laboratories, Inc., Cat #016-030-084) for 40 minutes at 37° C. Plates were washed again using wash buffer. Finally, TMB was added and the reaction was stopped using 1M H₂SO₄. The absorbance was read on a microplate reader using dual wavelength mode with 450 nm for TMB and 630 nm as the reference wavelength, and then the OD (450-630) values were plotted against antibody concentration. Data was analyzed using Graphpad Prism software and IC₅₀ values were reported.
Target sequence in this assay (chain, as listed by the source limits assumed): as above
For B4, 0.189 nM corresponded to half-maximal inhibition (IC50).

For B6, the IC50 stood at 0.161 nM.

Regarding B7, it took 0.223 nM to reach half-maximal inhibition (IC50).

As to B3, the midpoint of inhibition, the IC50, lay at 1.03 nM.

A further assay has as its target T1, macaca IL6R-his protein. Nature of the assay: indirect ELISA on plate-coated macaca IL6R-his. This is another data set of the same source. The protocol:
as §1
Consider B8, for which a half-maximal response (EC50) required 0.501 nM.

B9: the EC50 worked out at 0.341 nM.

Turning to B3, the midpoint of the response, the EC50, lay at 0.0575 nM.

In a further assay the target is T2, human IL6R-Fc protein. Nature of the assay: benchmark blocking ELISA: antibody pre-incubated with biotin-labeled human IL6R-Fc, added to plate-coated Tocilizumab (competitor: Tocilizumab). The protocol:
as §2
(§4) The next day, the anti-IL6R antibodies of the disclosure or controls were diluted with biotin labeled human IL6R-Fc protein (SEQ ID NO: 43, 13.6 ng/ml in 2.5% w/v non-fatty milk in PBST), starting at 100 nM with a 5-fold serial dilution, and incubated at room temperature for 40 minutes. […] After incubation at 37° C. for 40 minutes, plates were washed 4 times using wash buffer. Then streptavidin conjugated HRP was added, and the plates were incubated for 40 minutes at 37° C. The plates were finally washed using wash buffer, and added with TMB. The reaction was stopped using 1M […], and the absorbance was read on a microplate reader using dual wavelength mode with 450 nm for TMB and 630 nm as the reference wavelength. The OD (450-630) values were plotted against antibody concentration. Data was analyzed using Graphpad Prism software and IC₅₀ values were reported.
B10: the IC50 is 0.708 nM.

Turning to B8, the IC50 was 0.481 nM.

As for B3, the IC50 is 2.23 nM.

Another assay addresses T2, human IL6R-Fc protein. Description: ligand blocking ELISA: antibody pre-incubated with biotin-labeled human IL6R-Fc, added to plate-coated human IL6 (blocked ligand: human IL6). This is another data set of the same source. The protocol:
as §3
Molecule B2 yielded an IC50 of 0.807 nM.

Take B5: half-maximal inhibition (IC50) required 0.697 nM.

In turn, B3 returned an IC50 of 2.33 nM.

The target of the next assay is T2, human IL6R-Fc protein. Nature of the assay: benchmark blocking ELISA: antibody pre-incubated with biotin-labeled human IL6R-Fc, added to plate-coated Tocilizumab (competitor: Tocilizumab). This is another data set of the same source.
Target sequence in this assay (chain, as listed by the source limits assumed): as above
B4 yielded a half-maximal inhibitory concentration (IC50) of 0.186 nM.

The molecule B5 gave a half-maximal inhibitory concentration (IC50) of 0.23 nM.

B6 showed an IC50 of 0.194 nM.

Consider B3, for which the IC50 worked out at 0.812 nM.

The target of another assay is T2, human IL6R-Fc protein. The assay is described as above. The source holds these as a separate data set. Here is the method: as §2, §4
Turning to B11, the IC50 stood at 0.311 nM.

In turn, B1 came in with an IC50 of 0.467 nM.

B3 yielded an IC50 of 2.58 nM.

Values taken from US20230167182A1 (BIOSION, published 2023).
